In the supplement of paper PMC9116672:
± gives the standard deviation of the averaged measurements or the uncertainty stated by the source.

How the values were obtained:
[1] = duplex melting temperature (HRM, EvaGreen); higher = more stable duplex
Experimental: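 Listed DNA strand annealed 1:1 with its complementary strand (95 °C 5 min, 0.1 °C/s to 20 °C). Melted in 1x NNE buffer (500 mM NaCl, 10 mM Na2HPO4, 1 mM EDTA, pH 7.0) with 1x EvaGreen on a LightCycler96 (37 to 97 °C, 0.1 °C/s). Tm is the peak of -dF/dT at the stated total duplex concentration; 4 replicates are averaged. PS oligos are non-stereospecific (Rp/Sp mixtures).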

[2] = duplex formation free energy ΔG50 (Van't Hoff fit of HRM Tm); higher = less stable duplex; settings: temperature for dG: 50 °C, NaCl: 500 mM (unadjusted)
Experimental: (§1)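 Duplex of the listed DNA strand with its complement, in 1x NNE buffer (500 mM NaCl, pH 7.0) with 1x EvaGreen. ΔH and ΔS come from a Van't Hoff linear fit of 1/Tm against ln(CT/4) over 1-20 uM, using HRM Tm values.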

[3] = duplex formation enthalpy ΔH (Van't Hoff fit of HRM Tm); higher = less exothermic duplex formation; settings: temperature for dG: 50 °C, NaCl: 500 mM (unadjusted)
Experimental: as §1

[4] = duplex formation entropy ΔS (Van't Hoff fit of HRM Tm); higher = smaller entropy loss on duplex formation; settings: temperature for dG: 50 °C, NaCl: 500 mM (unadjusted)
Experimental: as §1

[5] = duplex concentration 1 µM, backbone: PO-PO (both strands phosphodiester DNA)
[6] = duplex concentration 1 µM, backbone: PS-PO (listed strand fully phosphorothioate, complement phosphodiester)
[7] = duplex concentration 1 µM, backbone: PS-PS (both strands fully phosphorothioate)
[8] = duplex concentration 2.5 µM, backbone: PO-PO (both strands phosphodiester DNA)
[9] = duplex concentration 2.5 µM, backbone: PS-PO (listed strand fully phosphorothioate, complement phosphodiester)
[10] = duplex concentration 2.5 µM, backbone: PS-PS (both strands fully phosphorothioate)
[11] = duplex concentration 5 µM, backbone: PO-PO (both strands phosphodiester DNA)
[12] = duplex concentration 5 µM, backbone: PS-PO (listed strand fully phosphorothioate, complement phosphodiester)
[13] = duplex concentration 5 µM, backbone: PS-PS (both strands fully phosphorothioate)
[14] = duplex concentration 7.5 µM, backbone: PO-PO (both strands phosphodiester DNA)
[15] = duplex concentration 7.5 µM, backbone: PS-PO (listed strand fully phosphorothioate, complement phosphodiester)
[16] = duplex concentration 7.5 µM, backbone: PS-PS (both strands fully phosphorothioate)
[17] = duplex concentration 10 µM, backbone: PO-PO (both strands phosphodiester DNA)
[18] = duplex concentration 10 µM, backbone: PS-PO (listed strand fully phosphorothioate, complement phosphodiester)
[19] = duplex concentration 10 µM, backbone: PS-PS (both strands fully phosphorothioate)
[20] = duplex concentration 15 µM, backbone: PO-PO (both strands phosphodiester DNA)
[21] = duplex concentration 15 µM, backbone: PS-PO (listed strand fully phosphorothioate, complement phosphodiester)
[22] = duplex concentration 15 µM, backbone: PS-PS (both strands fully phosphorothioate)
[23] = duplex concentration 20 µM, backbone: PO-PO (both strands phosphodiester DNA)
[24] = duplex concentration 20 µM, backbone: PS-PO (listed strand fully phosphorothioate, complement phosphodiester)
[25] = duplex concentration 20 µM, backbone: PS-PS (both strands fully phosphorothioate)
[26] = backbone: PO-PO (both strands phosphodiester DNA)
[27] = backbone: PS-PO (listed strand fully phosphorothioate, complement phosphodiester)
[28] = backbone: PS-PS (both strands fully phosphorothioate)

Sequence | duplex melting temperature [1, 5] [°C] | duplex melting temperature [1, 6] [°C] | duplex melting temperature [1, 7] [°C] | duplex melting temperature [1, 8] [°C] | duplex melting temperature [1, 9] [°C] | duplex melting temperature [1, 10] [°C] | duplex melting temperature [1, 11] [°C] | duplex melting temperature [1, 12] [°C] | duplex melting temperature [1, 13] [°C] | duplex melting temperature [1, 14] [°C] | duplex melting temperature [1, 15] [°C] | duplex melting temperature [1, 16] [°C] | duplex melting temperature [1, 17] [°C] | duplex melting temperature [1, 18] [°C] | duplex melting temperature [1, 19] [°C] | duplex melting temperature [1, 20] [°C] | duplex melting temperature [1, 21] [°C] | duplex melting temperature [1, 22] [°C] | duplex melting temperature [1, 23] [°C] | duplex melting temperature [1, 24] [°C] | duplex melting temperature [1, 25] [°C] | duplex formation free energy ΔG50 [2, 26] [kcal/mol] | duplex formation free energy ΔG50 [2, 27] [kcal/mol] | duplex formation free energy ΔG50 [2, 28] [kcal/mol] | duplex formation enthalpy ΔH [3, 26] [kcal/mol] | duplex formation enthalpy ΔH [3, 27] [kcal/mol] | duplex formation enthalpy ΔH [3, 28] [kcal/mol] | duplex formation entropy ΔS [4, 26] [cal/mol/K] | duplex formation entropy ΔS [4, 27] [cal/mol/K] | duplex formation entropy ΔS [4, 28] [cal/mol/K]
CGGTGCTTTTGGTAGC | 64.53 ± 0.35 | 55.5 | 48.49 ± 0.47 | 66.24 ± 0.63 | 57.98 ± 0.26 | 51.59 ± 0.36 | 68.2 ± 0.57 | 60.12 ± 0.16 | 53.89 ± 0.15 | 69.42 ± 0.55 | 61.35 ± 0.16 | 55.11 ± 0.14 | 70.49 ± 0.27 | 62.11 ± 0.17 | 55.86 ± 0.081 | 71.77 ± 0.14 | 63.256 ± 0.027 | 56.93 ± 0.08 | 72.89 ± 0.21 | 64.025 ± 0.015 | 57.7 ± 0.2 | -13 ± 0.28 | -11.01 ± 0.054 | -9.497 ± 0.038 | -78.9 ± 5 | -75.7 ± 1.6 | -69.1 ± 2.4 | -204 ± 15 | -200 ± 4.7 | -184 ± 7.3
GGTTGCGGTGGCCAAC | – | – | – | 72.47 ± 0.19 | – | – | 74.78 ± 0.39 | 59.24 ± 0.17 | – | 75.96 ± 0.48 | 59.89 ± 0.26 | 53.12 ± 0.24 | 76.87 ± 0.44 | 60.61 ± 0.24 | 53.68 ± 0.31 | 77.98 ± 0.31 | 61.52 ± 0.21 | 54.3 ± 0.32 | 78.76 ± 0.29 | 62.17 ± 0.44 | 54.47 ± 0.31 | -14.7 ± 0.36 | – | – | -83.4 ± 4.7 | – | – | -213 ± 13 | – | –
TAGACGCGGCCTCTTTCC | 73.91 ± 0.44 | 67.6 | – | 74.76 ± 0.23 | 69 ± 0.71 | – | 76.52 ± 0.15 | 70.8 ± 0.46 | – | 77.7 ± 0.27 | 71.32 ± 0.62 | 66.47 ± 0.089 | 78.58 ± 0.21 | 72.01 ± 0.38 | 67.44 ± 0.059 | 79.83 ± 0.13 | 73.3 ± 0.19 | 68.13 ± 0.13 | 80.63 ± 0.22 | 73.84 ± 0.11 | 68.81 ± 0.13 | -16.4 ± 0.68 | -14.9 ± 0.32 | -13.4 ± 0.56 | -99.8 ± 8.6 | -103 ± 5.1 | -101 ± 11 | -258 ± 24 | -272 ± 15 | -272 ± 32
TCTACACCGCGA | – | – | 41.3 ± 0.82 | – | – | 45.5 ± 0.56 | 62.45 ± 0.36 | 57 | 48.18 ± 0.13 | 64.36 ± 0.22 | 58.2 ± 0.61 | 49.78 ± 0.41 | 65.78 ± 0.25 | 60.1 ± 0.43 | 52 ± 0.91 | 67.547 ± 0.058 | 61.71 ± 0.24 | 54.2 ± 1.4 | 68.14 ± 0.13 | 63.08 ± 0.18 | – | -10.8 ± 0.19 | -9.65 ± 0.1 | -8.523 ± 0.038 | -54.3 ± 4.1 | -46.4 ± 3.2 | -44.4 ± 2.7 | -135 ± 12 | -114 ± 9.5 | -111 ± 8.4
GTCATTGTGCTTTTGC | 60.6 | 49.8 ± 0.38 | 45.054 ± 0.018 | 63.26 ± 0.54 | 52.96 ± 0.069 | 46.77 ± 0.14 | 65.29 ± 0.25 | 55.24 ± 0.19 | 48.65 ± 0.052 | 66.35 ± 0.14 | 56.46 ± 0.16 | 49.65 ± 0.053 | 67.27 ± 0.084 | 57.2 ± 0.17 | 50.58 ± 0.096 | 68.53 ± 0.17 | 58.37 ± 0.089 | 51.65 ± 0.14 | 69.4 ± 0.17 | 59.15 ± 0.096 | 52.76 ± 0.13 | -12.27 ± 0.096 | -9.798 ± 0.043 | -8.432 ± 0.028 | -78.5 ± 1.9 | -69.8 ± 2.2 | -79.9 ± 3.5 | -205 ± 5.7 | -186 ± 6.7 | -221 ± 11
